Measurements taken from patent US20170321240.

Legend:
[1] = system: Left TALEN Slc35c1 (synthetic construct (Xanthomonas AvrBs3 scaffold)); assay: cell_activity; conditions: TALEN pair with right TALEN, 19-bp spacer; T7E1 assay 72 h, CHO cells
[2] = system: Right TALEN Slc35c1 (synthetic construct (Xanthomonas AvrBs3 scaffold)); assay: cell_activity; conditions: TALEN pair with left TALEN, 19-bp spacer; T7E1 assay 72 h, CHO cells

| Substance | activity (% gene modification) [1] | activity (% gene modification) [2] |
| --- | --- | --- |
| Slc35c1 exon 1 left TALEN half-site | 7.3 |  |
| Slc35c1 exon 1 right TALEN half-site |  | 7.3 |
